This note sets out measurements from the supplement of paper PMC9170038.

This data set has as its system MS2 coat protein. In words: apparent KD of MS2 coat protein; designed switch direction (-1 OFF switch, 1 ON switch): -1; higher = weaker reporter binding. In short, it runs like this:
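On Illumina chips, designed RNA switches with common flanks were made by stalled E. coli RNA polymerase. Titrations with SNAP-549-labelled MS2 coat protein, doubling from 0.7 or 1.5 nM to 3 µM, were done with no input, with 200 uM small-molecule ligand, or with an oligonucleotide input. Apparent KD is the median per design over clusters, from curve fits of normalised cluster fluorescence.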

Where [1] appears, read: input ligand: microRNA oligo, concentration not stated.
Where [2] appears, read: Eterna round: R95, input ligand: FMN 200 uM.
The mark [3] stands for this setting: Eterna round: R95, input ligand: microRNA oligo, concentration not stated.
The mark [4] stands for this setting: Eterna round: R95, input ligand: none.

Take “AUGAGCAGACGGAGAUCCAACAUGAGGAUCACCCAUGUCUCAUAAGCUUUUUGUUCAUCUUAUUGUACCUUGGUGCA [Mat - Sensor v3 - turn-off var 1 - JL Mod - D25] (Eterna round: R96, puzzle: Sensor v3, turn-off variant 1)”: the “apparent KD of MS2 coat protein” value turned out to be 242 nM (input ligand: FMN 200 uM), 25.4 nM under setting [1] and 198 nM (input ligand: none).
Turning to “AUGAGCAGACGGAGAUCCAACAUGAGGAUCACCCAUGUCUCAUAAGCUUUUUGUUCAUCUUAUUGUACCUUGGUGCA [Mat - Sensor v3 - turn-off var 1 - JL Mod - D25] (puzzle: Sensor v3, turn-off variant 1)”, the “apparent KD of MS2 coat protein” value runs as follows: under setting [2], 57.2 nM; under setting [3], 30.5 nM; under setting [4], 55.5 nM.
With “AUGAGGUUAGGAUAUACAUGAGGAUCACCCAUGUUGAAGGGUUAGGUAGGCGGAGCUGGUAGAAGGAACGGAGC [JR_Exclu3_Sub057] (Eterna round: R96, puzzle: Exclusion 3)”, the “apparent KD of MS2 coat protein” value came out at 44.3 nM (input ligand: FMN 200 uM), 31.9 nM under setting [1] and 55.3 nM (input ligand: none).
As for “AUGAGGUUAGGAUAUACAUGAGGAUCACCCAUGUUGAAGGGUUAGGUAGGCGGAGCUGGUAGAAGGAACGGAGC [JR_Exclu3_Sub057] (puzzle: Exclusion 3)”, the “apparent KD of MS2 coat protein” value under setting [3] stood at 38.8 nM.
For “AUGAUACAUGAGGAUCACCCAUGUGAGGAUAUGAAGUUAUAAUACAUACUAUACAUCUUCAGAAGGCAUAUGUG [E1 S1 6/16] (Eterna round: R97, puzzle: Exclusion 1)”, the “apparent KD of MS2 coat protein” value runs as follows: (input ligand: FMN 200 uM) 229 nM; (input ligand: none) 109 nM.
With “AUGCGUGGCUAGGAUAUUGAGGAAUUUAGUCAGCGAGAAGGAGCCACAUGAGGAUCACCCAUGUGGUGAAGCUC [jl-ex6-4.59 ViennaUCT mod] (Eterna round: R97, puzzle: Exclusion 6)”, the “apparent KD of MS2 coat protein” value (input ligand: FMN 200 uM) came out at 70.5 nM and the “apparent KD of MS2 coat protein” value (input ligand: none) stood at 19.1 nM.
Regarding “AUGCUCCGUGUAGGAUAUCGCCGUACUACUCGGCGAGAAGGACAUGAGGAUCACCCAUGUAUGUUAUUAUCACGUGUGGCGCGC [Design 49] (Eterna round: R96, puzzle: Exclusion NG 1)”, the “apparent KD of MS2 coat protein” value reads like this: (input ligand: FMN 200 uM) 45.7 nM; under setting [1], 14 nM; (input ligand: none) 19.7 nM.
Consider “AUGGACGCAGGAUAUACAUGAGGAUCACCCAUGUGAGGUUGGUAAGUAGGAAGUGAAGGUAGAAGGGCGAGAGU [JR_Exclu3_Sub098] (puzzle: Exclusion 3)”, for which the “apparent KD of MS2 coat protein” value under setting [2] was found to be 209 nM, the “apparent KD of MS2 coat protein” value under setting [3] amounted to 84.2 nM and the “apparent KD of MS2 coat protein” value under setting [4] was found to be 76.8 nM.
For the sequence “AUGGACGCAGGAUAUACAUGAGGAUCACCCAUGUUAGGGUUAAGAGAAGGAAGGGAGAGUAGAAGGGCGAGAGU [JR_Exclu3_Sub0100] (puzzle: Exclusion 3)”, under setting [3], the “apparent KD of MS2 coat protein” value worked out at 110 nM.
“AUGGCGUUAGGAUAUACUAUGGGCCUGGACAGUGCACCUCCACAUGAGGAUCACCCAUGUAGAAGGAACUCGAG [Eternabot (L2) Solution 99] (Eterna round: R97, puzzle: Exclusion 2)”: the “apparent KD of MS2 coat protein” value (input ligand: FMN 200 uM) was 26.9 nM and the “apparent KD of MS2 coat protein” value (input ligand: none) was 20.8 nM.
As to “AUGGUUCGAUUAGGAUAUUAUAGAUUGAAUAGUAUGAUUUACAUGAGGAUCACCCAUGUUACAUAUAAGAAGGAAUCGAAUCAU [JR_ExcNG2_Sub087] (Eterna round: R96, puzzle: Exclusion NG 2)”, the “apparent KD of MS2 coat protein” value under setting [1] came to 11.5 nM.
On the same count and under the same terms, to “AUGUACCGGUGAGGAUAUUUUUAAUAGAGCUUUAUGAUAUACAUGAGGAUCACCCAUGUUACGUUAAAGAAGGCAUCGGAUUAA [Mat - Exclusion NG 2 - Mod of JL - D96] (Eterna round: R96, puzzle: Exclusion NG 2)” belongs 14 nM.
Take “AUGUAGGAAGGAUAUGCGUCGGCAUGAAAUCCUUGUUGGCCACAUGAGGAUCACCCAUGUAGAAGGUUCACGUA [Eternabot (L2) Solution 10] (Eterna round: R97, puzzle: Exclusion 2)”: the “apparent KD of MS2 coat protein” value amounted to 48.8 nM (input ligand: FMN 200 uM) and 52.7 nM (input ligand: none).
